Measurements taken from article doi:10.1101/2025.08.01.667454.

Biological target: PU.1[60–100]^TMR (human) (UniProt P17947)
Assay: fluorescence polarisation

Substance: BAF60A^SWIB (domain or fragment)
- Kd: > 50 µM
